Values belong to the substance of their own block, whether it stands above or below them.
What was measured:
[1] = target: full length HA-mGluR2 (rat) (UniProt P31421); assay: co-IP
[2] = target: chimera with the ECD of mGluR1 and the TMD (and C-terminal) of mGluR2 (rat); assay: single molecule pull-down
[3] = target: chimera with the ECD of mGluR1 and the TMD (and C-terminal) of mGluR2 (rat); assay: single molecule subunit counting
[4] = target: chimera with the ECD of mGluR2 and the TMD (and C-terminal) of mGluR1 (rat); assay: single molecule pull-down
[5] = target: chimera with the ECD of mGluR2 and the TMD (and C-terminal) of mGluR1 (rat); assay: single molecule subunit counting
[6] = target: mGluR2-GFP truncated by removing the entire extracellular domain (rat); assay: single molecule pull-down

mGluR2-GFP truncated by removing the entire extracellular domain (domain or fragment), sequence (P31421 19-872): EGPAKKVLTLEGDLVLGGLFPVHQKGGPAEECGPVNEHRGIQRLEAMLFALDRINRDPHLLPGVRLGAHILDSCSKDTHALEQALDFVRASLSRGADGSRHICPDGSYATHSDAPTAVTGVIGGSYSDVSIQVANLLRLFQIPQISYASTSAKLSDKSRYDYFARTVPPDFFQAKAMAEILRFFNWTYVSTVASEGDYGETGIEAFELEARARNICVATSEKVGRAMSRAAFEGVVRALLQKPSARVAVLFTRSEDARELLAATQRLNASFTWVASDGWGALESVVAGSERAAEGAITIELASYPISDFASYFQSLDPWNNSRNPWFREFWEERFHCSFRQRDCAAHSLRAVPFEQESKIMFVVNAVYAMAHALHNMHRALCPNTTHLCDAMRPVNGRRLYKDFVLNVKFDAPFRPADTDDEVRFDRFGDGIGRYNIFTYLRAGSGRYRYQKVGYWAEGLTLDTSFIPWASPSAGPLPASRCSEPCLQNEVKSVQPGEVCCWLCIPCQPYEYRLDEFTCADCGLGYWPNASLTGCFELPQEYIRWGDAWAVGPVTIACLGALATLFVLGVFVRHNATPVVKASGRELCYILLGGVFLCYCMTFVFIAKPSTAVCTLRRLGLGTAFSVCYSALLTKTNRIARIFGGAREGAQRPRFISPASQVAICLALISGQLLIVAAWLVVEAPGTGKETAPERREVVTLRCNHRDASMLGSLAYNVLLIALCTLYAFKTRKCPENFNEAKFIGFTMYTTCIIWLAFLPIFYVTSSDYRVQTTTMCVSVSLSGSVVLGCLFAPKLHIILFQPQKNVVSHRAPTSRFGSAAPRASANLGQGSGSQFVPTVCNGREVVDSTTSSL
full length HA-mGluR2 (rat), sequence (P31421 19-872): as above
GFP-tagged isolated ligand binding domain of mGluR2 (domain or fragment), sequence (P31421 19-872): as above

percent of spots bleaching in a single step [1]: 92.4%
Substance: GFP-tagged isolated ligand binding domain of mGluR2 (domain or fragment)

stoichiometry N [2]: 2
stoichiometry N [3]: 2
Substance: chimera with the ECD of mGluR1 and the TMD (and C-terminal) of mGluR2 (receptor)

stoichiometry N [4]: 2
stoichiometry N [5]: 2
Substance: chimera with the ECD of mGluR2 and the TMD (and C-terminal) of mGluR1 (receptor)

percent of spots bleaching in two steps [6]: 30%
percent of spots bleaching in a single step [1]: 89.6%
Substance: mGluR2-GFP truncated by removing the entire extracellular domain (domain or fragment)

Source: PMC5053906
